This is an account of results in patent publication US20180263919A1, “THERAPEUTIC ELECTROSPUN FIBER COMPOSITIONS” (The Johns Hopkins University, priority 2006, published 2018).

For data set [1], the system named is PC12 cells. The conditions noted are these: Thoenen and Bard; cited from earlier work.
For data set [2] the following is noted: rat, in vivo; cited from earlier work.
The subject of data set [3] is PC12 cells. The data set is described as follows: Bioactivity of released NGF: differentiation of PC12 cells into neurons. Format: cell-based, rat. The conditions noted are these: positive control, fresh NGF at 400 ng/ml.
The conditions of data set [4]: in vivo, iv; cited from earlier work.

“NGF: Recombinant human n-nerve growth factor (NGF) from R&D Systems”: the “threshold for induction of PC12 cell differentiation” value in the data set on PC12 cells [1] is listed as “around 0.5 ng/ml”. For the same substance, in data set [2], the elimination half-life result is given as “less than 5 hours”. In addition, in the data set with PC12 cells [3], the “percentage of PC12 cells induced to differentiate” value is on record as 20-55%.

For PDGF, in data set [4], the biologic half-life was 2 minutes. With bFGF: basic fibroblast growth factor, the biologic half-life in data set [4] is 3 minutes.
